Test results reported in patent US20190262327A1, “COMBINATION OF A BACE INHIBITOR AND AN ANTIBODY OR ANTIGEN-BINDING FRAGMENT FOR THE TREATMENT OF A DISORDER ASSOCIATED WITH THE ACCUMULATION OF AMYLOID BETA” (ASTRAZENECA AB, priority 2016, published 2019).

Tests used:
[1] = molecular target: T1, biotinylated human Amyloid beta 1-42 (Homo sapiens, UniProt P05067); assay: Surface Plasmon Resonance specificity profiling of IgGs (BIAcore2000); type: binding; conditions: peptide 64-1024 nM
T1 construct: biotinylated human Amyloid beta 1-42 peptide (rpeptide, USA; cat: A1117); purchased rPeptide, USA A1117; host or cells: synthetic peptide
T1 sequence (P05067 672-713): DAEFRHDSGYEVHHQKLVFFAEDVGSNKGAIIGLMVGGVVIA
Protocol: (§1) Surface Plasmon Resonance was used to verify the specificity of the affinity-optimized IgGs for the human Amyloid beta 1-42 peptide. Briefly, the BIAcore2000 (GE Healthcare, UK) biosensor instrument was used to assess the kinetic parameters of the interaction between each test IgG and a range of small peptides including synthetically-produced human Amyloid beta 1-42 and human Amyloid beta 1-40. These experiments were performed essentially as described by Karlsson et al. (Karlsson et al., 1991).
(§2) The interaction between each test IgG and each peptide was estimated using assays in which the antibody was non-covalently captured by a protein G surface that was itself amine linked to a proprietary CM5 chip. The interaction between antibody and peptide was observed using a 5 application single cycle approach. The chip surface was regenerated between cycles by paired 40 second injections of 10 mM Glycine pH 2.0 to remove ligand and bound antibody. The test antibody was then reapplied for each peptide injection cycle.
(§3) Blank reference flow-cell data were subtracted from each IgG dataset and a zero-concentration antibody-only buffer blank was double-reference subtracted from the main dataset.

[2] = molecular target: T2, biotinylated human Amyloid beta 1-40 (Homo sapiens, UniProt P05067); assay: as above; type: binding; conditions: peptide 64-1024 nM
T2 construct: biotinylated human Amyloid beta 1-40 (rPeptide, USA; cat: A1111); purchased rPeptide, USA A1111; host or cells: synthetic peptide
T2 sequence (P05067 672-711): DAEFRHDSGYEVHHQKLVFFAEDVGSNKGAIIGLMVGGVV
Protocol: as §1, §2, §3

[3] = molecular target: T3, unlabelled murine Amyloid beta 1-40 (Mus musculus, UniProt P12023); assay: as above; type: binding; conditions: peptide 64-1024 nM
T3 construct: unlabelled murine Amyloid beta 1-40 (rPeptide, USA; cat: A1007); purchased rPeptide, USA A1007; host or cells: synthetic peptide
T3 sequence (P12023 672-711): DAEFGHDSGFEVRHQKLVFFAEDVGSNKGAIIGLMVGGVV
Protocol: as §1, §2, §3

[4] = molecular target: T4, unlabelled murine Amyloid beta 1-42 (Mus musculus, UniProt P12023); assay: as above; type: binding; conditions: peptide 64-1024 nM
T4 construct: unlabelled murine Amyloid beta 1-42 (rPeptide, USA; cat: A1008); purchased rPeptide, USA A1008; host or cells: synthetic peptide
T4 sequence (P12023 672-713): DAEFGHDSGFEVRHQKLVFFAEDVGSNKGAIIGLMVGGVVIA
Protocol: as §1, §2, §3

[5] = molecular target: T5, Amyloid beta 1-42 peptide (Rattus norvegicus, UniProt P08592); assay: Total Amyloid beta 1-42 peptide in rat brain homogenates (ELISA); type: in vivo; conditions: Sprague-Dawley rats, 0.25-10 mg/kg weekly over 14 days
T5 construct: Measurement of free Amyloid beta 1-42 peptide in rat CSF; from tissue; host or cells: CSF and brain homogenate of Sprague-Dawley rats
T5 sequence (P08592 672-713 limits assumed): as the sequence (P12023 672-713) above
Protocol: Eight-week old male albino Harlan Sprague-Dawley rats (n=8-12) received a single dose of Abet0380-GL IgG1-TM antibody by intravenous injection with a dosing vehicle of 25 mM Histidine, 7% Sucrose, 0.02% p80 surfactant, pH 6.0 at 5 ml/kg. Dosing solutions were made just before dosing. Animals were anaesthetized at the time indicated and cerebrospinal fluid (CSF) was aspirated from the cistema magna. CSF samples were centrifuged for 10 minutes at approximately 3000× g at 4° C. within 20 minutes of sampling to remove cells or debris. Samples were then frozen on dry ice and stored at −70° C. for subsequent analysis.
Animals were sacrificed by decapitation, brain tissue was dissected and Amyloid beta peptides were extracted from brain tissue in diethylamine (DEA; Fluka. Sigma. UK; cat: 31729). Briefly, frozen brain tissue was homogenized in 0.2% DEA and 50 mM NaCl (Merck, USA: cat: 1.06404.1000). Brain homogenates were ultracentrifuged at 133,000×g, for 1 hour. Recovered supernatants were neutralized to pH 8.0 with 2 M Tris-HCl (TRIZMA®-hydrochloride; Sigma, UK; cat: 93363) and stored at −70° C. until analysis. Animal experimentations were performed in accordance with relevant guidelines and regulations provided by the Swedish Board of Agriculture. The ethical permission was provided by an ethical board specialized in animal experimentations: the Stockholm Södra Animal Research Ethical Board.
Measurement of total (free and Abet0380-GL bound) Amyloid beta 1-42 peptide in rat brain homogenates was performed using modifications of the mouse Amyloid beta (1-42) colorimetric ELISA kit (Invitrogen, UK: cat: KMB3441). […] To stop the reaction, 100 μl of Stop Solution was added to each well and the plate was read within 2 hours at an absorbance of 450 nm. […]
The ability of antibody Abet0144-GL to sequester amyloid beta 1-42 was investigated in a PK-PD study in normal rats. […] Free and total amyloid beta 1-42 levels were measured using assays described above.

[6] = listed as Abet0380-GL (germlined) IgG1-TM

B1: Abet0380-GL IgG1-TM: germlined Abet0380; VH SEQ ID NO: 524, VL SEQ ID NO: 533; human IgG1 triple mutant format (antibody, listed as Homo sapiens, V domains shown)
VH: EVQLLESGGGLVQPGGSLRLSCAASMGNFNYQTMWWVRQAPGKGLEWVSVIGKTNENIAYADSVKGRFTISRDNSKNTLYLQMNSLRAEDTAVYYCAREWMDHSRPYYYYGMDVWGQGTLVTVSS
VL: SYELTQPPSVSVSPGQTASITCSGHNLEDKFASWYQQKPGQSPVLVIYRDDKRPSGIPERFSASNSGHTATLTISGTQAMDEADYYCSSQDTVTRVFGGGTKLTVL
modifications: human IgG1 triple mutant constant region; /note=“Abet0380-GL”
notes: germlined Abet0380; human IgG1 triple mutant format
[1]
  binding of biotinylated human Amyloid beta 1-42 peptide to immobilized antibody: clear binding
[1]; [6]
  binding of biotinylated human Amyloid beta 1-42 peptide to immobilized antibody: strong binding
[2]
  binding of biotinylated human Amyloid beta 1-40 peptide to immobilized antibody: no discernable binding
[2]; [6]
  binding of biotinylated human Amyloid beta 1-40 peptide to immobilized antibody: no binding
[3]
  binding of unlabelled murine Amyloid beta 1-40 peptide to immobilized antibody: no discernable binding
[3]; [6]
  binding of unlabelled murine Amyloid beta 1-40 peptide to immobilized antibody: no binding
[4]
  binding of unlabelled murine Amyloid beta 1-42 peptide to immobilized antibody: clear binding
[4]; [6]
  binding of unlabelled murine Amyloid beta 1-42 peptide to immobilized antibody: strong binding
[5]
  effect on total Amyloid beta 1-42 peptide in brain tissue: dose-dependent increase
